Test results reported in US20160194407A1.

Target: T1, recombinant murine CD73 protein (form not stated) (murine) (UniProt Q61503)
T1 sequence (looked up): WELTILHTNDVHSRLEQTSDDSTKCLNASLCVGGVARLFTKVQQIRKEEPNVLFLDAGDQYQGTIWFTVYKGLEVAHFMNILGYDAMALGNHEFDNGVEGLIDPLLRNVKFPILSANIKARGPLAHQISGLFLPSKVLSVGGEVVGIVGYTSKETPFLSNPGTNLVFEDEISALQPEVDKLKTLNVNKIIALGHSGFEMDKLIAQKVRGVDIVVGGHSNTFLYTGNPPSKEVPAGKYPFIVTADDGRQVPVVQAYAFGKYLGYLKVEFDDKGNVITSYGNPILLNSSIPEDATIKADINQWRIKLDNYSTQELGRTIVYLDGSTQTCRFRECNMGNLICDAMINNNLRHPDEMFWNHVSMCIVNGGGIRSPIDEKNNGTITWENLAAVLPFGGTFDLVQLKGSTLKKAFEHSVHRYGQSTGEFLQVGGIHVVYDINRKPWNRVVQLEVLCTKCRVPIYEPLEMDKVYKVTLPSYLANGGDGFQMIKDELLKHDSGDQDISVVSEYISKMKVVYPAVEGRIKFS
Experiment: Binding, Mouse; assay not described

B1: CD730042 antibody (antibody, IgG1, V domains shown)
VH: GVQLVQSGGGLVQPGGSLRLSCAASGFTFSSYGMHWVRQAPGKGLEWVAVISYDGSIKYYADSVKGRFTISRDDSKNALYLQMNSLRAEDTAVYYCSTLSGSYGYFDYWGRGTLVTVSS
VL: QSVLTQPASVSGSPGQSITISCAGTSSDVGGYNYVSWYQQHPGKAPKLMIYEGSKRPSGVSNRFSGSKSGNTASLTISGLQAEDEADYYCSSYTTRSTRVFGGGTKLTVL
Work on B1 yielded a 1/EC50 of 0 nM⁻¹.

B2: CD730047 antibody (antibody, IgG1, V domains shown)
VH: EVQLVQSGGGVVQPGRSLRLSCAASGFTFSSYGMHWVRQAPGKGLEWVAVISYDGSIKYYADSVKGRFAISRDNAKNTLYLQMNSLRREDTAMYYCASGLTGVAGALGVWGRGTLVTVSS
VL: QSVLTQPPSASGAPGQRVTISCSGSSSNIGSNTVNWYQRLPGAAPQLLIYNNDQRPSGIPDRFSGSKSGTSGSLVISGLQSEDEADYYCAAWDDSLSGNVFGTGTKVTVL
B2 was tested, and the 1/EC50 was 0 nM⁻¹.
